Laboratory results as given in patent publication US12280118B2 (Kyowa Kirin Co., Ltd., priority 2017, dated 2025).

What was measured:
Assay type in all cases: cell-based
human Tregs = assay: Treg proliferation activity; details: for Treg proliferation activity: with respect to IL-2 (P) or 8His-IL-2 (P) as control
Protocol: After human frozen peripheral blood mononuclear cells (PBMCs) (manufactured by AllCells) were melted in a warm bath at 37° C., the cells were suspended in 10 mL of a culture medium [X-vivo15 SFM (manufactured by Lonza) 1000 mL, heat-inactivated human AB serum (manufactured by SIGMA) 150 mL], and a T-75 flask for adhesion (manufactured by greiner bio-one) was seeded the cells, and allowed to stand for 24 hours to culture the cells (37° C., under conditions of 95 vol % air/5 vol % CO2). A total amount of cells was collected, and CD4^+ T cells were enriched using EasySep Human CD4^+ Tcells Enrichment kit (manufactured by […] Technologies).
After staining (on ice, 30 minutes) with Anti-human CD4-Alexa 488 (manufactured by Biolegend), anti-human CD25-PE (manufactured by BD Pharmingen), and anti-human CD127-BV421 (manufactured by Biolegend), a CD4^+ CD25^+ CD127^low fraction (Treg) was separated using a cell sorter SH800 (manufactured by SONY Biotechnology).
The separated Treg and CD3/CD28 Dynabeads (manufactured by Thermo Fischer […]) washed three times with the culture medium were mixed with each other, and suspended in a culture medium at 3.4×10^4 cells/mL, respectively, and a 96-well U bottom plate (manufactured by Corning) was seeded with at 150 μL/well.
After culturing for 5 to 7 days, 50 μL of a total volume of each well was transferred to a 96-well white plate. A Celltiter-Glo solution was added at 50 μL/well, and the mixture was allowed to stand at room temperature for 10 minutes, and then a luminescence value was measured using a luminometer (manufactured by TURNER BIOSYSTEMS).

human NK cells = assay: NK cell proliferation activity; details: for cell proliferation activity on NK cells: compared with IL-2 (P) and 8His-IL-2 as controls
Protocol: A separation of NK cells from human PBMC was performed by a method below. Frozen human PBMC was thawed according to the method described in Example 13, and CD56^+ NK cells were separated using NK Cell Isolation Kit human (manufactured by Miltenyi Biotech). The separated cells were washed three times with a culture medium (1500 rpm, room temperature, 5 minutes) and then subjected to a proliferation assay below.
FIGS. 2A to 2H show results obtained using a proliferation medium, and FIGS. 2I to 2K show results obtained using the X-vivo 10 SFM.

human Tresp = assay: Inhibitory activity of IL-2-stimulated Tregs on Tresp proliferation; details: Tregs cultured 7 days with IL-2 (final concentration 65 nM); compared with unstimulated Treg
Protocol: All cells were separated from each other by the same lot of frozen human PBMC.
Seven days before the assay, Tregs were separated from the frozen human PBMCs as described in Example 13.
The cell preparation on the day of test was performed as follows. Tregs were separated from the frozen human PBMC by the method described in Example 13 and used as unstimulated Tregs. After CD3^+CD25^− T cells were separated from the frozen human PBMC, by using EasySep Human T Cell Enrichment Kit (manufactured by [sequence] Technologies) and EasySep Human Pan-CD25 Positive Selection and Depletion Kit (manufactured by [sequence] Technologies), the cells were labeled by reacting Celltrace violet (manufactured by Thermo Fischer [sequence]) diluted to 40 μmol/L with a 10% FBS-containing RPMI1640 medium, at room temperature for 5 minutes.
The obtained cells were used as responder T cells (Tresp). HLA-DR+ cells were separated from frozen human PBMCs using Anti-HLA-DR MicroBeads, human (manufactured by Miltenyi Biotec). The obtained cells were used as Antigen presenting cell (APC).
After the obtained cells were suspended in X-vivo 15 SFM to which an anti-CD3 antibody OKT3 (manufactured by Biolegend) was added to obtain a final concentration of 0.5 μg/mL, a 96-well V-bottom plate (manufactured by Sumitomo Bakelite) was seeded with Tresp at 2×10^4 cells/well (50 μL), APC at 1×10^5 cells/well (50 μL), and Tregs at 1.6×10^2 to 5×10^3 cells/well (50 μL) (Tresp:Treg=4:1 to 128:1), and the cells were cultured at 37° C. under 5% CO2 for 4 days.
Thereafter, the cells were stained with anti-human CD4-APC (manufactured by BD Pharmingen) and anti-human CD8-PE (manufactured by BD Pharmingen) (at room temperature for 15 minutes), and then various fluorescent intensities were measured by flow cytometer FACS Canto II (manufactured by BD Biosciences).
The obtained data was exported as FCS file, and then analyzed using data analysis software FLowJo (TreeStar, version 7.6.5) for a division index value, which is an average number of cell divisions in CD4^+ Tresp or CD8^+ Tresp.

Molecule | Treg proliferation activity (human Tregs) | cell proliferation activity on NK cells (human NK cells) | proliferation of Tresp in the presence of IL-2-stimulated Tregs (human Tresp) | IL-2-dependent cell proliferation rate (human Tregs; Treg, IL-2 concentration of 65 nmol/L) | IL-2-dependent cell proliferation rate (human NK cells; NK cells, X-vivo 10 SFM, IL-2 concentration of 65 nmol/L)
E15C-11: glycosylated IL-2 variant; E15 to C-disialo; C125S | maintained | greatly reduced | – | – | –
H16C-2: glycosylated IL-2 variant; H16 to C-lactose | maintained | greatly reduced | inhibited | – | –
L19C-9: glycosylated IL-2 variant; L19 to C-asialo | maintained | greatly reduced | inhibited | – | –
N88C-2: glycosylated IL-2 variant; N88 to C-lactose | maintained | greatly reduced | inhibited | – | –
F78C-V40(IAc)/L12C-11: Cys-PEGylated and glycosylated IL-2 variant; F78 to C-V40(IAc); L12 to C-disialo; C125S (protein, UniProt P60568 21-153, looked up, variant L12C F78C C125S, PEG on C78; disialo glycan on C12, Cys-PEGylated and glycosylated IL-2 variant; F78 to C-V40(IAc); L12 to C-disialo; C125S) Interleukin-2: APTSSSTKKTQCQLEHLLLDLQMILNGINNYKNPKLTRMLTFKFYMPKKATELKHLQCLEEELKPLEEVLNLAQSKNCHLRPRDLISNINVIVLELKGSETTFMCEYADETATIVEFLNRWITFSQSIISTLT | lowered | greatly reduced | – | ≥ 80% | –
V91C-11/V115C-11: glycosylated IL-2 variant; V91, V115 to C-disialo; C125S (protein, UniProt P60568 21-153, looked up, variant V91C V115C C125S, disialo glycans on cysteines, glycosylated IL-2 variant; V91, V115 to C-disialo; C125S) Interleukin-2: APTSSSTKKTQLQLEHLLLDLQMILNGINNYKNPKLTRMLTFKFYMPKKATELKHLQCLEEELKPLEEVLNLAQSKNFHLRPRDLISNINCIVLELKGSETTFMCEYADETATICEFLNRWITFSQSIISTLT | maintained | greatly reduced | – | – | –
T3C-Li20(IAc)/L12C-11/V91C-11: Cys-PEGylated and glycosylated IL-2 variant; T3 to C-Li20(IAc); L12, V91 to C-disialo; C125S (protein, UniProt P60568 21-153, looked up, variant T3C L12C V91C C125S, PEG on C3; disialo glycans, Cys-PEGylated and glycosylated IL-2 variant; T3 to C-Li20(IAc); L12, V91 to C-disialo; C125S) Interleukin-2: APCSSSTKKTQCQLEHLLLDLQMILNGINNYKNPKLTRMLTFKFYMPKKATELKHLQCLEEELKPLEEVLNLAQSKNFHLRPRDLISNINCIVLELKGSETTFMCEYADETATIVEFLNRWITFSQSIISTLT | lowered | greatly reduced | – | – | –
T3C-V80(Mal)/E15C-11: Cys-PEGylated and glycosylated IL-2 variant; T3 to C-V80(Mal); E15 to C-disialo; C125S (protein, UniProt P60568 21-153, looked up, variant T3C E15C C125S, maleimide PEG on C3; disialo glycan on C15, Cys-PEGylated and glycosylated IL-2 variant; T3 to C-V80(Mal); E15 to C-disialo; C125S) Interleukin-2: APCSSSTKKTQLQLCHLLLDLQMILNGINNYKNPKLTRMLTFKFYMPKKATELKHLQCLEEELKPLEEVLNLAQSKNFHLRPRDLISNINVIVLELKGSETTFMCEYADETATIVEFLNRWITFSQSIISTLT | lowered | greatly reduced | – | – | –
A1C-11/T3C-11/S5C-11/L12C-11/V91C-11: glycosylated IL-2 variant; A1, T3, S5, L12, V91 to C-disialo; C125S (protein, UniProt P60568 21-153, looked up, variant A1C T3C S5C L12C V91C C125S, disialo glycans on cysteines, glycosylated IL-2 variant; A1, T3, S5, L12, V91 to C-disialo; C125S) Interleukin-2: CPCSCSTKKTQCQLEHLLLDLQMILNGINNYKNPKLTRMLTFKFYMPKKATELKHLQCLEEELKPLEEVLNLAQSKNFHLRPRDLISNINCIVLELKGSETTFMCEYADETATIVEFLNRWITFSQSIISTLT | lowered | greatly reduced | – | – | ≤ 20%
T3C-Y50(IAc)/E15C-11: Cys-PEGylated and glycosylated IL-2 variant; T3 to C-Y50(IAc); E15 to C-disialo; C125S (protein, UniProt P60568 21-153, looked up, variant T3C E15C C125S, PEG on C3; disialo glycan on C15, Cys-PEGylated and glycosylated IL-2 variant; T3 to C-Y50(IAc); E15 to C-disialo; C125S) Interleukin-2: APCSSSTKKTQLQLCHLLLDLQMILNGINNYKNPKLTRMLTFKFYMPKKATELKHLQCLEEELKPLEEVLNLAQSKNFHLRPRDLISNINVIVLELKGSETTFMCEYADETATIVEFLNRWITFSQSIISTLT | maintained | greatly reduced | – | – | –
